# According to the supplement of paper PMC10567573:
# B1: WDFY2 (parent)
# chain: FWNFKQMWDSKKIGLRQHHCRKCG
# B2: ZNF449 (parent)
# chain: YRHQRLHTGERPYECTVCKKRFTR
# Variants of: B1
# Assay: protein stability index of a GFP-peptide fusion (GPS, HEK-293T) (PSI 1-6); higher = more stable
# Conditions: c terminus: a fixed tail appended
# 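Further: lentivirally expressed fusions sorted by FACS into six bins by GFP to DsRed ratio, PSI derived from sequencing read proportions per bin multiplied by bin number.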
row,Variant,protein stability index
1,FWNFKQMWDSKKIGLYQHHCRKCG [R16Y],1.85
2,FWNFKQMWDSKKIGLRQHHQRKCG [C20Q],2.15
3,FWNFKQMWDSKKIGLRQHHCRTCG [K22T],2.87
4,FWNFKQMWDSKKIGRRQHHCRKCG [L15R],2.61
5,FWNFKQMWRSKKIGLRQHHCRKCG [D9R],1.73
6,FWNFKQMWISKKIGLRQHHCRKCG [D9I],2.56
7,FWNFKQMWDSKWIGLRQHHCRKCG [K12W],2.3
8,FWNFKQMEDSKKIGLRQHHCRKCG [W8E],3.3
9,FWNFKQMRDSKKIGLRQHHCRKCG [W8R],2.58
10,FWNFKQMVDSKKIGLRQHHCRKCG [W8V],2.22
11,FWNFKQMLDSKKIGLRQHHCRKCG [W8L],2.59
12,FWNFKQMWDSKKIGLRGHHCRKCG [Q17G],1.49
13,FWNFKQMWDSKKIGLRSHHCRKCG [Q17S],1.99
14,FWNFKQMWDSKKIGLRPHHCRKCG [Q17P],2.52
15,FWNFKQMWDSKKIGLRAHHCRKCG [Q17A],2.32
16,FWNFKQMWDSKKIGLRNHHCRKCG [Q17N],1.35
17,FWNFKQMWDSKKIFLRQHHCRKCG [G14F],1.93
18,FWNFKQMWDSKKIWLRQHHCRKCG [G14W],1.91
19,FWNFKQMWDSKKIHLRQHHCRKCG [G14H],1.82

row,Variant,protein stability index
1,FWGFKQMWDSKKIGLRQHHCRKCG [N3G],2.28
2,FWSFKQMWDSKKIGLRQHHCRKCG [N3S],3.29
3,FKNFKQMWDSKKIGLRQHHCRKCG [W2K],2.04
4,FSNFKQMWDSKKIGLRQHHCRKCG [W2S],1.42
5,FNNFKQMWDSKKIGLRQHHCRKCG [W2N],2.63
6,FENFKQMWDSKKIGLRQHHCRKCG [W2E],3.29
7,FWNFKQMWDSKKIGLRQHHCRKCH [G24H],1.71
8,FWNFKQMWDSKKIGLRQHHCRKCF [G24F],1.23
9,FWNFKQMWDSKKIGLRQSHCRKCG [H18S],1.84
10,FWNFKQMWDSKKIGLRQHHCQKCG [R21Q],2.11
11,FWNFKQMWDSKKIGLRQHHCNKCG [R21N],2.46
12,FWNTKQMWDSKKIGLRQHHCRKCG [F4T],2.3
13,FWNEKQMWDSKKIGLRQHHCRKCG [F4E],2.39
14,FWNFHQMWDSKKIGLRQHHCRKCG [K5H],1.66
15,FWNFKQMWDSKKIGLRQHHCRKSG [C23S],1.78
16,FWNFKQMWDPKKIGLRQHHCRKCG [S10P],2.17
17,FWNFKKMWDSKKIGLRQHHCRKCG [Q6K],2.44
18,HWNFKQMWDSKKIGLRQHHCRKCG [F1H],2.66

# Variants of: B2
# Assay: as above
# Conditions: c terminus: a fixed tail appended
row,Variant,protein stability index
1,YRHQRLHTGERPYECTVCKKGFTR [R21G],1.96
2,YRHQRLHTGERPYECTVCKKWFTR [R21W],2.18
3,YIHQRLHTGERPYECTVCKKRFTR [R2I],2.65
4,YMHQRLHTGERPYECTVCKKRFTR [R2M],2.33
5,FRHQRLHTGERPYECTVCKKRFTR [Y1F],1.65
6,CRHQRLHTGERPYECTVCKKRFTR [Y1C],3.93
7,GRHQRLHTGERPYECTVCKKRFTR [Y1G],2.21
8,LRHQRLHTGERPYECTVCKKRFTR [Y1L],2.83
9,YRHQRLHTGERPYECTVCKSRFTR [K20S],2.08
10,YRHQRLHTGERPYECTVCKMRFTR [K20M],2.25
11,YRHQRLHTGERPYECTVHKKRFTR [C18H],3.48
12,YRHQRLHTGERPYCCTVCKKRFTR [E14C],2.57
13,YRHQRLHTGERPYFCTVCKKRFTR [E14F],2.11
14,YRHQRLHTGERPYWCTVCKKRFTR [E14W],2.59
15,YRHQRLHTGERPYECHVCKKRFTR [T16H],2.24
16,YRHQVLHTGERPYECTVCKKRFTR [R5V],2.19
17,YRHQMLHTGERPYECTVCKKRFTR [R5M],2.25
18,YRHQRLHTGERPYECTVCKKRFNR [T23N],2.28
19,YRHQRLHTGERPYECTVCKKRFDR [T23D],2.21

row,Variant,protein stability index
1,YRHQRLHTGERPYECTVCKKRFLR [T23L],2.71
2,YRHQRLHTGERPYECTVCKKRFQR [T23Q],2.16
3,YRHQRLHTGERPYECTVCKKRFTK [R24K],3.32
4,YRHQRLHTGERPYECTVCKKRFTH [R24H],2.11
5,YRHQRLHTGERPYECTVCKKRFTS [R24S],2.3
6,YRHQRLHTGERPYECTCCKKRFTR [V17C],2.65
7,YRHQRLHTGERPYECTGCKKRFTR [V17G],2.63
8,YRHQRLHTGERPYECTRCKKRFTR [V17R],2.55
9,YRHQRLHTGERPYECTVCKKRQTR [F22Q],2.66
10,YRHQRLHTGFRPYECTVCKKRFTR [E10F],2.35
11,YRHQRLHTGHRPYECTVCKKRFTR [E10H],2.88
12,YRHQRLHTGPRPYECTVCKKRFTR [E10P],2.58
13,YRHQRLHTGMRPYECTVCKKRFTR [E10M],1.91
14,YRHQRLHTGSRPYECTVCKKRFTR [E10S],2.62
15,YRHQRLHTGLRPYECTVCKKRFTR [E10L],2.13
16,YRHQRLHTWERPYECTVCKKRFTR [G9W],1.91
17,YRHQRLHTAERPYECTVCKKRFTR [G9A],2.26
18,YRHQRLHTNERPYECTVCKKRFTR [G9N],2.54
19,YRHQRLHTGERPYECTVCWKRFTR [K19W],2.07

row,Variant,protein stability index
1,YRHQRLHTGERPYECTVCGKRFTR [K19G],2.15
2,YRHQRLHTGERPGECTVCKKRFTR [Y13G],2.55
3,YRHQRLHTGERPFECTVCKKRFTR [Y13F],2.86
4,YRHQRLNTGERPYECTVCKKRFTR [H7N],2.64
5,YRHQRLFTGERPYECTVCKKRFTR [H7F],1.46
6,YRHQRLWTGERPYECTVCKKRFTR [H7W],3.01
7,YRHQRLHTGERIYECTVCKKRFTR [P12I],2.1
8,YRHQRLHTGERPYEITVCKKRFTR [C15I],2.55
9,YRHQRLHTGERPYEHTVCKKRFTR [C15H],3.33
10,YRHQRLHTGERPYEGTVCKKRFTR [C15G],3.7
11,YRHQRLHTGERPYEATVCKKRFTR [C15A],3.02
12,YRHQRLHTGEPPYECTVCKKRFTR [R11P],2.33
13,YRHQRLHTGEEPYECTVCKKRFTR [R11E],2.08
14,YRHQRLHTGEWPYECTVCKKRFTR [R11W],2.2
15,YRHARLHTGERPYECTVCKKRFTR [Q4A],2.44
16,YRHMRLHTGERPYECTVCKKRFTR [Q4M],1.73
17,YRPQRLHTGERPYECTVCKKRFTR [H3P],2.68
18,YRSQRLHTGERPYECTVCKKRFTR [H3S],2.35
19,YRHQRLHIGERPYECTVCKKRFTR [T8I],2.41
